This note sets out measurements from US20220331363A1 (SHANGHAI GENBASE BIOTECHNOLOGY, published 2022).

Numbering of substitutions follows the chain as printed.

Test [1] addresses T1, human BCMA expressed on human multiple myeloma cells (U266, MM.1S, RPMI8226) (human, UniProt Q02223 1-184).
T1 construct: whole, on cells; Endogenous BCMA on tumor cell lines; also called BCMA-expressing tumor cells; BCMA+ cell line
T1 sequence (looked up): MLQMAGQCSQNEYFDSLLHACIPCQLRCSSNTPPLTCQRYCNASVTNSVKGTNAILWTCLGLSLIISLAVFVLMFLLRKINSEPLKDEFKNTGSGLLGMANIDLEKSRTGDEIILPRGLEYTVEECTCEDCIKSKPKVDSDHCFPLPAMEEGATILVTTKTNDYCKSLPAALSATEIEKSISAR
The experiment in a line: flow cytometry (FACS) on U266 cells. As for the experimental part: (§1) Cells (human myeloma cells expressing BCMA or tissue cells not expressing BCMA) were digested, and 500,000 cells were seeded in 50 μL of PBS containing 2% FBS (FACS buffer) in a U-bottom 96-well plate. The test samples were subjected to a 3-fold serial dilution by diluting ⅓ volume (100 μL) in 200 μL of FACS buffer, starting at a concentration of 300 μg/mL (final concentration). 50 μL of the diluted antibody was added to each well of the cell plate and incubated at 4° C. for 1 hour. After washing twice with FACS buffer, 100 μL of secondary antibody (Abcam ab97003, 5 μg/mL, diluted in FACS buffer) was added to each well, and incubated at 4° C. for 0.5 hours. After staining and washing twice with FACS buffer, 200 μL of FACS buffer was added to each well, and reading was performed on the machine (BD C6plus).
For orientation: In flow cytometry, cells or beads pass a laser one at a time.

The target of test [2] is T1, human BCMA expressed on human multiple …. The experiment in a line: flow cytometry (FACS) on MM.1S cells. As for the experimental part:
as §1

The target is the same in test [3]. The experiment in a line: flow cytometry (FACS) on RPMI8226 cells. As to the method: as §1
In test [4] the target is T2, recombinant human BCMA protein (Sino Biological, 10620-H08H) (human, UniProt Q02223 1-54).
T2 construct: Bought protein, coated on the ELISA plate
T2 sequence (looked up): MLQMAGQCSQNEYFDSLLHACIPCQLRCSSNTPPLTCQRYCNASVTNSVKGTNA
The experiment in a line: ELISA, BCMA protein coated at 1 µg/mL, HRP anti-human secondary antibody. As to the method:
The binding activity of the antibodies to human BCMA protein was assessed using an ELISA method, and the antibody potency was compared using dose-dependent binding curves in ELISA.
BCMA protein (Sino Biological, 10620-H08H) was diluted to 1 μg/mL in PBS, 100 μL of the protein solution was added to each well of the ELISA plate and incubated at 4° C. overnight. The plate was washed 3 times in wash buffer (PBS, 0.05% Tween 20), and non-specific sites were blocked by adding 200 μl/w PBS+2% BSA blocking solution. C11D5.3-03, C11D5.3-04 or murine antibody C11D5.3 was added and incubated at 37° C. for 2 h. The plate was washed 3 times in wash buffer, and HRP-conjugated goat anti-human secondary antibody was added and incubated for 1 h at room temperature. The plate was washed 3 times in wash buffer, and the bound secondary antibody was detected by adding TMB (HRP substrate) and incubating the plate in the dark at room temperature for 5 to 10 minutes. The enzymatic reaction was stopped by adding 1M of sulfuric acid solution, and the light absorption at 450 nm was measured.
(In general: In an ELISA, binding on a coated surface is turned into a signal by an enzyme label.)

Test [5] has as its target human Burkitt's lymphoma cell Daudi. Description: flow cytometry (FACS) on Daudi cells, which Example 3 says do not express BCMA. As for the experimental part:
as §1

B1: humanized anti-BCMA antibody C11D5.3-03 (scFv) (scFv, V domains shown)
VH: QIQLVQSGSELKKPGASVKVSCKASGYTFTDYSINWVRQAPGQGLEWMGWINTETREPAYAQGFTGRFVFSLDTSVSTAYLQISSLKAEDTAVYFCALDYSYAMDYWGQGTLVTVSS
VL: EIVLTQSPATLSMSLGERATLSCRASQSVTILGSHLIHWYQQKPGQPPRLLIQLASNVQTGIPARFSGSGSRTDFTLTISSLEEEDFAVYYCLQSRTIPRTFGGGTKVEIK
notes: For the soluble protein it states neither the domain order nor the linker
Consider B1, for which the half-maximal effective concentration (EC50) in test [1] came out at 7.57 µg/mL; in test [2] it was 0.81 µg/mL; in test [3], 2.25 µg/mL; in test [4], 0.011 µg/mL; in test [5], 36.3 µg/mL.

B2: humanized anti-BCMA antibody C11D5.3-04 (scFv) (scFv, V domains shown)
VH: B1 VH with I34M, A59T
VL: B1 VL with Q27E, V58R, Q59A
notes: as for B1
Regarding B2, the EC50 in test [1] worked out at 1.99 µg/mL; in test [2] it was 0.47 µg/mL; in test [3], 0.82 µg/mL; in test [4] it was 0.011 µg/mL; in test [5], 30.7 µg/mL.

B3: murine anti-BCMA antibody C11D5.3 (scFv), reference antibody (scFv, V domains shown)
VH: QIQLVQSGPELKKPGETVKISCKASGYTFTDYSINWVKRAPGKGLKWMGWINTETREPAYAYDFRGRFAFSLETSASTAYLQINNLKYEDTATYFCALDYSYAMDYWGQGTSVTVSS
VL: DIVLTQSPPSLAMSLGKRATISCRASESVTILGSHLIHWYQQKPGQPPTLLIQLASNVQTGVPARFSGSGSRTDFTLTIDPVEEDDVAVYYCLQSRTIPRTFGGGTKLEIK
With B3, the concentration giving a half-maximal response (EC50) in test [1] stood at 4.4 µg/mL; in test [2] it was 1.62 µg/mL; in test [3], 3.81 µg/mL; in test [4], 0.011 µg/mL.

What is called EC50 is the concentration that produces a half-maximal response.
